We go through 2 substances from patent publication US20050100551A1.

Test [1] has as its target Herceptin. Description: inhibition ELISA: herceptin preincubated with KLH alone, binding to SKBR3 membranes (Her-2/neu). A general note: ELISA stands for enzyme-linked immunosorbent assay.
Test [2] deals with Herceptin. Description: inhibition ELISA: herceptin preincubated with wild-type phage, binding to SKBR3 membranes (Her-2/neu).

As for KLH (from UniProt Q10583 17-3414), in the test with Herceptin [1], the Percent inhibition in comparison to uninhibited herceptin control came to 0%.
Wild-type phage registered a Percent inhibition in comparison to uninhibited herceptin control with Herceptin [2] of 3%.
